# Measurements reported in the supplement of paper PMC10724198.
# ± gives the standard deviation of the averaged measurements.
# Tested on: Saccharomyces cerevisiae
# Experiment: protein stability index of tFT-peptide fusion (C-terminal peptide) (PSI (0-1 scale)); higher = more stable (slower turnover)
# Settings: genetic background: wild type; temperature: 30 C
# Method: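 Multiplexed protein stability (MPS) profiling in S. cerevisiae. Random 12-aa peptides (tFT-X12 library) are fused to the C-terminus of a sfGFP-mCherry tandem fluorescent timer, after mCherry and a GGGS linker. Cells are FACS-sorted into 8 mCherry/sfGFP bins and deep-sequenced. The protein stability index (PSI) is the read-weighted bin average, scaled from 0 (unstable) to 1 (stable). Only peptides with >10 reads are reported; cells were grown at 30 °C in SC-His with glucose.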
# 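Further: PSI is a weighted mean of sequencing reads over stability bins, variants kept only with over 10 reads, mCherry proximal and sfGFP distal, peptide attached via GGGS linker.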
row,Sequence,protein stability index
1,FGSVFMSFFLCS,0.522 ± 0.037
2,FGTKHFGGWGGV,0.745 ± 0.015
3,FGVGGAVGWRLR,0.677 ± 0.052
4,FGVVLEGAGGGG,0.702 ± 0.07
5,FHDVVSKKHSLK,0.705 ± 0.032
6,FHLPLSSHDPLL,0.747 ± 0.11
7,FHSLTDSSPPGL,0.649 ± 0.022
8,FIFPPLFFSPVL,0.788 ± 0.13
9,FIGGCYCSVKSL,0.705 ± 0.047
10,FILCFPSLLSSL,0.603 ± 0.022
11,FISEYPQCAALG,0.738 ± 0.078
12,FKSYNNDLQDRI,0.728 ± 0.16
13,FKVILGEFPVAW,0.674 ± 0.0086
14,FLASPTPSHPRL,0.787 ± 0.091
15,FLDSFCFFPPLP,0.778 ± 0.014
16,FLFKLPPPPRCH,0.678 ± 0.1
17,FLFLFGCSPFFG,0.727 ± 0.057
18,FLIPPPFALPSL,0.717 ± 0.08
19,FLISFCFVGLVL,0.55 ± 0.014
20,FLLIFHSSPLPV,0.574 ± 0.05
21,FLLPPPPRASSF,0.736 ± 0.066
22,FLLRFSPASRAV,0.691 ± 0.019
23,FLLVSLKQCHGR,0.73 ± 0.036
24,FLMDSQGPWICR,0.726 ± 0.076
25,FLPPSVYAHPFP,0.743 ± 0.083
26,FLQHPPHVLHPY,0.7013 ± 0.0069

row,Sequence,protein stability index
1,FLRILRLTPRRP,0.728 ± 0.036
2,FLRVVGFVCRWG,0.679 ± 0.025
3,FLRYVLLPSLFV,0.499 ± 0.01
4,FLSFTSLRTKGL,0.743 ± 0.054
5,FLSHRMNMSGLA,0.658 ± 0.016
6,FLSRFLSCLFYF,0.576 ± 0.028
7,FLTSFVDLCGFY,0.682 ± 0.0082
8,FLVFFRRPSRFF,0.5856 ± 0.0058
9,FLVKFYKYPSTR,0.707 ± 0.12
10,FMLRTCFLTTSK,0.718 ± 0.027
11,FMMRPPVSSKVS,0.554 ± 0.0048
12,FNETVLYIVPNG,0.639 ± 0.065
13,FNINRCLEGAHK,0.717 ± 0.035
14,FNVSNPVSLQTG,0.641 ± 0.021
15,FPCGARPFPLAF,0.704 ± 0.049
16,FPELLFLFSPSF,0.723 ± 0.022
17,FPFGRMNVSGGC,0.701 ± 0.026
18,FPHLAPTTHLLP,0.673 ± 0.1
19,FPLGRCPHIPPH,0.664 ± 0.013
20,FPLSLSFLSPLV,0.705 ± 0.12
21,FPPLCSSSPPLP,0.7131 ± 0.0069
22,FPPRLPPSPPLP,0.666 ± 0.036
23,FPRFACVLPAFH,0.671 ± 0.081
24,FPSPPPPAPLPP,0.763 ± 0.039
25,FPTPPPGPGPPP,0.641 ± 0.03
26,FPTSRAGSLIRR,0.678 ± 0.053

row,Sequence,protein stability index
1,FPVARGRHWLSR,0.732 ± 0.12
2,FPVPPFFLSGHL,0.651 ± 0.11
3,FPVPPPPHPPLH,0.675 ± 0.027
4,FPYPFSSSCFSS,0.651 ± 0.062
5,FQGPPFKHVNSV,0.701 ± 0.059
6,FQIRGFFGLMAD,0.754 ± 0.046
7,FRASLFFVWLPS,0.59 ± 0.085
8,FRGGLLSLSAWV,0.699 ± 0.02
9,FRGRSSLSTSCG,0.69 ± 0.023
10,FRHSSAVLAPGV,0.6896 ± 0.0057
11,FRLPMIRVCWSL,0.569 ± 0.025
12,FRPCPLNSLSRY,0.724 ± 0.021
13,FRPFLPPSRTFS,0.676 ± 0.008
14,FRPLPFYRLSPP,0.727 ± 0.021
15,FRPLVDVKFPRY,0.658 ± 0.13
16,FRPNPCLSPCSA,0.643 ± 0.1
17,FRSENSWLLCSW,0.786 ± 0.048
18,FRSPRLSPSFFF,0.717 ± 0.027
19,FRSTKELLQLGR,0.664 ± 0.055
20,FRVSVRTVSSLR,0.654 ± 0.037
21,FSELTGFMSVRG,0.652 ± 0.025
22,FSFARFFSWSFS,0.694 ± 0.13
23,FSFFQFSASFFL,0.699 ± 0.039
24,FSGFGERFMISS,0.6917 ± 0.0033
25,FSGRGSSPVAVF,0.544 ± 0.035
26,FSHLLPAESPYP,0.654 ± 0.086

row,Sequence,protein stability index
1,FSKDDFEVTPNS,0.819 ± 0.079
2,FSLLPYFPYALP,0.739 ± 0.089
3,FSLVHSFRLSFC,0.599 ± 0.012
4,FSMAHLDGGHRR,0.676 ± 0.013
5,FSRAPHFSGRLC,0.502 ± 0.0087
6,FSSCPPFRPFPL,0.787 ± 0.04
7,FSSTCLSSRFAI,0.684 ± 0.07
8,FSVDASLPLSSV,0.6749 ± 0.0063
9,FSVPLMLTFPRD,0.721 ± 0.054
10,FSVSLACYPSMC,0.698 ± 0.075
11,FTCRRYVGFMGG,0.798 ± 0.025
12,FTGAVGPCTCRY,0.731 ± 0.023
13,FTSLCLLFLFSL,0.616 ± 0.085
14,FTSRGLLILGFM,0.619 ± 0.008
15,FTTAGSGWESVW,0.636 ± 0.041
16,FVASRFLRCLVL,0.495 ± 0.017
17,FVFQYVVGNFAI,0.617 ± 0.051
18,FVISRPRLHSFC,0.5663 ± 0.0032
19,FVLGGLHAGYVL,0.7146 ± 0.0038
20,FVLRCLGLVLPV,0.593 ± 0.077
21,FVLRFRGMRPSN,0.673 ± 0.019
22,FVLRFVLSLVFF,0.494 ± 0.083
23,FVPLFVFSCSRS,0.5 ± 0.014
24,FVSLEVLFISSL,0.5609 ± 0.0016
25,FVVGGGLRMGAG,0.62253 ± 0.00043
26,FVVLALKESFSV,0.605 ± 0.057

row,Sequence,protein stability index
1,FWCMLLAPFVNV,0.657 ± 0.11
2,FWDSCAVSLYLR,0.632 ± 0.041
3,FWVASREVGRAY,0.608 ± 0.041
4,FYRPGNVLDGVF,0.705 ± 0.075
5,GAARTPGRARTL,0.685 ± 0.049
6,GACCRHERIREE,0.761 ± 0.084
7,GACGSTLPASSR,0.668 ± 0.058
8,GADGARGVPGAG,0.662 ± 0.018
9,GADGYSCGLVIT,0.539 ± 0.11
10,GAENPRRLRART,0.691 ± 0.0079
11,GAGEGAQEDPAS,0.705 ± 0.013
12,GAGLPSGLRIGL,0.647 ± 0.025
13,GAGWGWGRKGSR,0.751 ± 0.089
14,GAHATVPSMVTL,0.698 ± 0.092
15,GALVGWAMALGW,0.679 ± 0.033
16,GAMLAGRQGGGL,0.655 ± 0.0089
17,GANKQHLARKTE,0.7254 ± 0.0069
18,GAPSHVTPLPQI,0.686 ± 0.047
19,GARGGEGVSGGA,0.701 ± 0.012
20,GARPTKCCSYGT,0.683 ± 0.011
21,GARTPVPRHRVH,0.6396 ± 0.0011
22,GARWGWGRKGSR,0.692 ± 0.072
23,GASGGGRGNLEV,0.727 ± 0.13
24,GAVARFRERALS,0.525 ± 0.0098
25,GAVLSYIAPTPL,0.7404 ± 0.0055
26,GAVVLAGWGVLK,0.718 ± 0.028

row,Sequence,protein stability index
1,GAVWGRLTGSAH,0.6469 ± 0.005
2,GAVYHGGMASVR,0.746 ± 0.054
3,GAWFTSSPVFGS,0.731 ± 0.034
4,GCAGRHRWVGEW,0.6649 ± 0.0027
5,GCAITVKRLWFG,0.656 ± 0.076
6,GCCGQGLPWNPP,0.562 ± 0.0077
7,GCFARSEKLSGL,0.687 ± 0.1
8,GCGAVEGFGVGW,0.625 ± 0.03
9,GCGGAWGVWDGV,0.729 ± 0.072
10,GCGLVGVVTGRD,0.71 ± 0.14
11,GCIELTGHLGSF,0.7059 ± 0.0036
12,GCLWRGARALGP,0.687 ± 0.075
13,GCMGGYAFFSGG,0.571
14,GCPRGGVGSRGV,0.659 ± 0.098
15,GCRRYLFLFFGC,0.6 ± 0.047
16,GCVGCNRWWPGW,0.721 ± 0.042
17,GCVGIGFSPGGG,0.656 ± 0.014
18,GDGAGGGFGLVV,0.724 ± 0.097
19,GDGNERPLGRRD,0.643 ± 0.052
20,GDHPPMETISRP,0.734 ± 0.095
21,GDIGAGMGVVGE,0.641 ± 0.0049
22,GDKQKKNEKNKE,0.681 ± 0.048
23,GDNRGLTRVGIE,0.718 ± 0.053
24,GDPADGACGPTR,0.8 ± 0.062
25,GDRNNLRCWNAS,0.712 ± 0.11
